Paper PMC6528599

Target: T1, GlaR (YugA) (Lactococcus lactis IL1403) (UniProt Q7DAT6)
T1 sequence: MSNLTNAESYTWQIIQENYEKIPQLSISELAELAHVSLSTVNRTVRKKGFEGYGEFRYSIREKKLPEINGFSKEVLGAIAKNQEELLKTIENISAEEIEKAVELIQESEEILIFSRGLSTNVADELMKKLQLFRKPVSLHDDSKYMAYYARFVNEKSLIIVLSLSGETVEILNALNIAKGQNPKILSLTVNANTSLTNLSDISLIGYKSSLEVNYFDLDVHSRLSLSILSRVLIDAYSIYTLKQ
Test: EMSA
Details: EMSA: 1 nM DNA, 10 mM Tris-HCl pH 8.5, 10 mM MgCl2, 100 mM KCl, 0.1 mg/ml BSA (printed as 10x binding buffer), 250 mM galactose, 20 ul, 20 min at 37 C; 5% PAGE …

CCATTACATTTTCATGACGATTACATACAAAAAAAGCTCAAAAATTTGAGCTTTTTTTTTCGAATTTTAGATAATTAACTAGTAACCTTTTGGATGACTTTGGTGCCATTTCCAAGCGTTCGTAATAATGTGCTCTAAATCATTTTGTGCTTTCCAACCCAAAATTTCACCAGCTTTTGTTGAATCAGCAACCAGCTCATCTGGGTCTCCTGCACGGCGTTCACCCATTTGGCTTGGAATTTCTTTACCTGTTACTTTTCGTGCGGTTTCAAGCACTTCAAG (double strand)
binding: no binding

GGACATTGGCATCTACTTGAAGAAGAAGCAGGAACATGGTTAAATATTGACGGATTCCATATGGGTGTAGGTGGAGATGATTCATGGAGTCCAAGTGTCGCTCAGGAATATTTATTGACAAAGGGAAATTATCATTATGAAGTTAGTTTTAAATTAACGTGATGATCCAAATTTTCAAGAATTTGATATAATATAGAGAAAATGGAGGTTCTTATGACGGTTTTAGTTCTTGGTGGAGCAGGATACGTGGGAAGTCACGCGGTAGATATGCTTCTTAAACGTGGTTACGATGTGGCAG (double strand) [galE upstream region]
binding: no binding
